# Measured values published in the nanobody polyreactivity screen of Harvey et al. (2022).
# Assay: yeast display, Sf9 membrane polyspecificity reagent, FACS + sequencing; frameworks hold sequencing errors
# In short: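 Galactose induction of a Saccharomyces cerevisiae BJ5465 synthetic nanobody display library ran 36–48 hours. The cells were then stained for 1 hour at 4 °C with 10% biotinylated, detergent-solubilized Sf9 membrane reagent, pulled down on streptavidin microbeads and FACS-sorted into low and high (top ~1%) gates on expression and reagent-binding fluorescence. Labels for polyreactivity follow the gate of origin.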
row,Sequence,polyreactivity (PSR sort gate)
1,QVQLVESGGGLVQAGGSLRLSCAASGFIFSIYAMGWYRQAPGKERELVAGIDNGGGTYYADSVKGRFTISRDNAKNTVYLQMNSLKPEDTAVYYCAADTYSIGELYDYWGQGTQVTVSS,low polyreactivity
2,QVQLVESGGGLVQAGGSLRLSCAASGFIFSIYAMGWYRQAPGKERELVAGIDNGGGTYYADSVKGRFTISRDNAKNTVYLQMNSLKPEDTAVYYCDLGSTTMDYWGQGTQVTVSS,low polyreactivity
3,QVQLVESGGGLVQAGGSLRLSCAASGFIFSLYAMGRYRQATGKERELVAVITWSDGRTYYADSVKGRFTISRDNAKNTVYLQMNSLKPEDTAVYYCAAADWITEYDYWGQGTQVTVSS,low polyreactivity
4,QVQLVESGGGLVQAGGSLRLSCAASGFIFSLYAMGWYRQAPGKERELVAAISKRGGSTNYADSVKGRFTISRDNAKNNVYLQMNSLKPEDTAVYYCAKARPGFLYDHWGQGTQVTVSS,high polyreactivity
5,QVQLVESGGGLVQAGGSLRLSCAASGFIFSNNAMGWYRQAPGKERELVAAISGRGGSTYYADSVKGRFTISRDNAKNTVYLQMNSLKPEDTAVYYCNALYTYSYSRFDYWGEGTQVTVSS,low polyreactivity
6,QVQLVESGGGLVQAGGSLRLSCAASGFIFSNNAMGWYRQAPGKERELVAAISKSGGGTSYADSVKGRFTISRDNAKNTVYLQMKSLNPEDSGVYYCAARFSQFRVDFWGQGTQVTVSS,high polyreactivity
7,QVQLVESGGGLVQAGGSLRLSCAASGFIFSRNAMGWYRHAPGKERELVAAISLRGGSTYYADSVKGRFTISRDNAKNTVYLQMNSLKPEDTAVYYCAAPLFSGYDYWGQGTQVTVSS,low polyreactivity
8,QVQLVESGGGLVQAGGSLRLSCAASGFIFSRNAMGWYRQAPGKERELVAAISSGGGTDYADSVKGRFTISRDNAKNTVYLQMNSLQPEDTAVYYCAASYFPGWKHSLDDYWGQGTQVTVSS,low polyreactivity
9,QVQLVESGGGLVQAGGSLRLSCAASGFIFSRNTMGWYRQAPGKERELVAAISRGGGSTYYADSVKGRFTISRDNAKNTVYLQMNSLKPEDTAVYYCNTRIVAAGRYDYWGQGTQVTVSS,high polyreactivity
10,QVQLVESGGGLVQAGGSLRLSCAASGFIFSRYAMGWYRQAPGKERELVAAISSRGGSTYYADSVKGRFTISRDNAKNTVYLQMNSLKPEDTAVYYCNVDPRYSLTPPMDYWGQGTQVTVSS,high polyreactivity
11,QVQLVESGGGLVQAGGSLRLSCAASGFIFSRYTMGWYRQAPGKERELVAAISRRGGNTYYADSVKGRFTISRDNGKNTVYLLMNSLKPEDTAVYYFAADSSYFKDEYWGQGTQVTVSS,low polyreactivity
12,QVQLVESGGGLVQAGGSLRLSCAASGFIFSRYVMGWYRQAPGKERELVAVISYRGGSTYYADSVKGRFTISRDNAKNTVYVQMNSLKPEDTAVYYCNADTIPDGEDRYDYWGHGTQVTVSS,low polyreactivity
13,QVQLVESGGGLVQAGGSLRLSCAASGFIFSSYAMGWYRQAPGKEREFVAVISTGGGSTYYADSVKGRFTLSRDNAKNTVYLQMISLKPEDTAVYYCAAKLYDSGGRYWYDYWGQGTQVTVSS,high polyreactivity
14,QVQLVESGGGLVQAGGSLRLSCAASGFIFSSYAMGWYRQAPGKERELVASTSRRAGRTYYADSVKGRFTISRDNAKNTVYVQMNSLKPEDSAVYYCAAEARVGYHFQILDYWGQGTQVTVSS,high polyreactivity
15,QVQLVESGGGLVQAGGSLRLSCAASGFIFSTYAMGWYRQAPGKERELVAAITRGGRTYYADSVKGRFTISRDNAKNTVYLQMNSLIPEDTAVYYCAVFVHGDYWGQGTQVTVSS,high polyreactivity
16,QVQLVESGGGLVQAGGSLRLSCAASGFIFSWYAMGWYRQAPGKERELVAAINWSGDSTYYADSVKGRFTISRDNAKNTVYLQMNSLKPEDTAVYYCAADPSYWGDPYDYWGQGTQVTVSS,high polyreactivity
17,QVQLVESGGGLVQAGGSLRLSCAASGFIFSWYAMGWYRQAPGKERELVAAITSGGRTNYADSVKGRFTISRDNAKNTVYLQMNSLKPEDTAVYYCAAAFYPFWPRYTSDYWGQGTQVTVSS,high polyreactivity
18,QVQLVESGGGLVQAGGSLRLSCAASGFIFSYNAMGWYRQAPGKERVLVAAISSRGGSTYYADSVMGRFTISRDNAKNTVYLQMNSLKPEDTGVSYCAVASRRVYTAPYDYWGQGTQVTVSS,high polyreactivity
19,QVQLVESGGGLVQAGGSLRLSCAASGFIFSYNAMGWYRTAPGTERELDAAISSSGGTTYYADSVKGRFTISRYNAKNTVYLQMNSLKPEDTAVYYCAADGRTYHHLDGGWYRYDYWGQGTQVTVSS,low polyreactivity
20,QVQLVESGGGLVQAGGSLRLSCAASGFIFSYYAMGWYRQAPGKERELLAAISRNGGRTYYADSVKGRFTISRDNAKNTVYLQMNSLKPEDTAVYYCAATTYRTSSYIRYGSPKHDDYWGQGTQVTVSS,high polyreactivity
21,QVQLVESGGGLVQAGGSLRLSCAASGFIFSYYAMGWYRQAPGKERELVAAITSGGSTNYADSVKGRFTISRDNAKNTVYLQMNSLKPEDTAVFYCATAGSGGIGLFYSYDYWGQGTQVTVSS,low polyreactivity
